In patent US6593454B2, “Methods for identifying inhibitors of methionine aminopeptidases” (Saint Louis University, priority 1999, dated 2003):

Key:
[1] = substrate: CSCC[C@H](N)C(=O)NCC(=O)N1CCC[C@H]1C(=O)Nc1ccc([N+](=O)[O-])cc1; experiment: AccQ-Tag assay, kinetic parameters of the substrate peptide with type 2 MAP; format: biochemical; conditions: other: human type 2 MAP; substrate Met-Gly-Pro-p-nitroanilide; mean ± SD
Excerpt: (§1) To determine whether Met-Gly-Pro-p-nitroanilide is a substrate for MAP, and whether the presence of dipeptidyl peptidase could affect the activity of MAP, an AccQ-Tag assay was used as described in Zuo et al., supra.

[2] = substrate: CSCC[C@H](N)C(=O)NCC(=O)N1CCC[C@H]1C(=O)Nc1ccc([N+](=O)[O-])cc1; experiment: AccQ-Tag assay, kinetic parameters of the substrate peptide with type 1 MAP; format: biochemical; conditions: other: yeast type 1 MAP; substrate Met-Gly-Pro-p-nitroanilide; mean ± SD
Excerpt: as §1

| Protein | Km [1] [mM] | kcat [1] [s⁻¹] | kcat/Km [1] [M⁻¹ s⁻¹] | Km [2] [mM] | kcat [2] [s⁻¹] | kcat/Km [2] [M⁻¹ s⁻¹] |
| --- | --- | --- | --- | --- | --- | --- |
| human type 2 MAP (Homo sapiens) (protein) MAGVEEVAASGSHLNGDLDPDDREEGAASTAEEAAKKKRRKKKKSKGPSAAGEQEPDKESGASVDEVARQLERSALEDKERDEDDEDGDGDGDGATGKKKKKKKKKRGPKVQTDPPSVPICDLYPNGVFPKGQECEYPPTQDGRTAAWRTTSEEKKALDQASEEIWNDFREAAEAHRQVRKYVMSWIKPGMTMIEICEKLEDCSRKLIKENGLNAGLAFPTGCSLNNCAAHYTPNAGDTTVLQYDDICKIDFGTHISGRIIDCAFTVTFNPKYDTLLKAVKDATNTGIKCAGIDVRLCDVGEAIQEVMESYEVEIDGKTYQVKPIRNLNGHSIGQYRIHAGKTVPIVKGGEATRMEEGEVYAIETFGSTGKGVVHDDMECSHYMKNFDVGHVPIRLPRTKHLLNVINENFGTLAFCRRWLDRLGESKYLMALKNLCDLGIVDPYPPLCDIKGSYTAQFEHTILLRPTCKEVVSRGDDY | 3 ± 0.5 | 8.63 ± 0.583 | 2870 ± 433 |  |  |  |
| yeast type 1 MAP (Saccharomyces cerevisiae S288C) (protein) MSTATTTVTTSDQASHPTKIYCSGLQCGRETSSQMKCPVCLKQGIVSIFCDTSCYENNYKAHKALHNAKDGLEGAYDPFPKFKYSGKVKASYPLTPRRYVPEDIPKPDWAANGLPVSEQRNDRLNNIPIYKKDQIKKIRKACMLGREVLDIAAAHVRPGITTDELDEIVHNETIKRGAYPSPLNYYNFPKSLCTSVNEVICHGVPDKTVLKEGDIVNLDVSLYYQGYHADLNETYYVGENISKEALNTTETSRECLKLAIKMCKPGTTFQELGDHIEKHATENKCSVVRTYCGHGVGEFFHCSPNIPHYAKNRTPGVMKPGMVFTIEPMINEGTWKDMTWPDDWTSTTQDGKLSAQFEHTLLVTEHGVEILTARNKKSPGGPRQRIK |  |  |  | 4 ± 0.7 | 14.4 ± 0.417 | 3600 ± 583 |
